Measured values reported in the DeepSol protein solubility set.

Assay: soluble on expression in E. coli; label from the status in PepcDB or PDB records

Soluble on expression in E. coli, not soluble:
MGSDKIHHHHHHMSIVLKAIRFHRETDLFTDLNFEFPTGALTVLTGDSGSGKSTLLSLIAGYAAMPYEGTILLNGHDDRNAAMQVKAQHVGMMFQNPDQQFTMRTLSGELSFALENLNLPVAEIQRRFAQAVALGETQALLDRDLSTLSGGEKQRAALTVLLAMDAPILLLDEPFASIDPTSRHLLIGKLGTLRDHGKTIVIAEHDLTDYADVADQLVALKNGELSRLPLATLTTLPTHFNLTQPRQATNKIFHLENVVCQQNHHILLQAPSWDFNDGITTLTGANGSGKSTLLRSMVQRHPYQGRMFLGQQRLRRRKRLYQTMTLAVQDAAKQFVTLTLADELAFGPALPAAVREKQQAALAYLGLAEKQTTSLYQLSEGQKKMVQLMTMLSLDLSFLLLDEPFSGLDDRACQYFAAWIKAKSATQAFLIVTHRLAPLAGISQQQVLLANHRLQVVQG, MGSDKIHHHHHHMSKPAYLVEADGVNITKQIADRLLSLTVVDEAEQLSDRVEIVLDDRDKLLEIPKSGTWLKVYLGYAEGGKLPVYMGTYAVDDLTLSNGPRSMVVRATALETAPAMKDSRTQSWHDTTLGEIARTIASRSGLELRIVGDVGSIPIKHEDQTAESDIAFLTRLARRLKITAKPIDKALWITRRASDIPATPGVELAQRIVKGDEVSDWRATIKNRGAYSRVKARYFDQDEKKEKLLTVGPEDGNLQTFEEKQLYKTRDEAQRAADSRLQSLQSGEVTIDFSMEGDPEFTAEGQVTLQDFRALVDGTWYIRNVTHKFDGNGYRTTVTCGTKGEANNDWSAGRGENDKRSASEKGSLLCKTAQQLRGFSTQGGPDGGRNACVWAVNRVFQKAGLTTPWGGSNYVPDAEAALRRSGAQQVSGPEPGAIAIFTDGGNPPQAHIGIVTCDGGRVISNSSSRPTRTRLASPSEYQGFYSGPIRYYRLK, MGSDKIHHHHHHMSKPGAELEEVFSSVQGEGMLIGLRQVFIRFRGCNLTCDYCDTPAGTPAEPCRIEQTPGRRDFVPADNPVSLDRVAALVEGWQRGWPGVHDSISITGGEPLLRHDILMQWLPVLREHLPVYLETNGVMHAALGLVINHVDIIGMDIKIPSTSGCTDLWDDHRQFLEIANTRRAFIKIVVGEETEDWEITRASEIIAGVNRDIPLILQPVTRAGDTLGIKPVKALELQELACRYLAEVRIIPQTHRFMGQL, MGSDKIHHHHHHMSKSLFPFRFLLPVPVDHYENFPVASWLLPGRLREPVSAIYRFARSADDLADEGDAPPRARLQELARYHSELDRIERGEIPDDPIFGRLAAAIRAHALPLTPFRDLLSAFAQDIEKTRYASFGEVMDYCRRSANPVGRLMLHLYGDHDPRHQAYSDAICSSLQLINFLQDVAIDYAKGRIYLPQDELAAHHVSEAQIAAGDAGGLWRMMMHKQIERARKLLQAGAPLGRALDGRIGLELRVTIRGGETILRKLHADPGCVFGARPVLGKRDWIVMLARSVL, MGSDKIHHHHHHMSLCLFCDQPFTGDLDMRRLLLPGKSKTSCLCPSCRQLFAQIGTAFCPQCGRQQDSGEICQDCQKWRRIYQGNFLHNQAVYCYNQAFHDLMVRYKRYGDYLLCQVLQELAAPAVQKLAADYYVPVPTSPEHRKKRGYDTVWEIFTPLLPLTPLLAKKAGAGAQGEKDKKARMQAKQNFFLNPEFRGTITGKIILLDDIYTTGRTLYHARDAIEKAFPKCQVESFSISR, MGSDKIHHHHHHMSLEATDSKAMVLLMGVRRCGKSSICKVVFHNMQPLDTLYLESTSNPSLEHFSTLIDLAVMELPGQLNYFEPSYDSERLFKSVGALVYVIDSQDEYINAITNLAMIIEYAYKVNPSINIEVLIHKVDGLSEDFKVDAQRDIMQRTGEELLELGLDGVQVSFYLTSIFDHSIYEAFSRIVQKLIPELSFLENMLDNLIQHSKIEKAFLFDVNSKIYVSTDSNPVDIQMYEVCSEFIDVTIDLFDLYKAPVLRNSQKSSDKDNVINPRNELQNVSQLANGVIIYLRQMIRGLALVAIIRPNGTDMESCLTVADYNIDIFKKGLEDIWANARASQAKNSIEDDV, MGSDKIHHHHHHMSLHAPTFSKLFSGVIWKIIADSDTGTVYVETRDGDKRKALFHAFDLQAKKMLWADVSILDAWWSSLKIANKGNLLVVKFNDPDMPEQRGFAVIDGKTSKLLWGKDDAQVMQAEPDGIIVAEGKEEDSSYLKLDWAAGKTLGAVSVKEMFSGFNKKAQTRSFVLYPFHFEEENSFFSKIKEYIEIITGHKAVRMIEYLEKGDKVLISYYIYEEEKLTNFILVADEKGALLVHEKLNAGLKGIGMDTFFVLKDQLIVVKNNNELQSYVIK, MGSDKIHHHHHHMSLKELLKDRLSEEELKLVRRSFEIIGDVVIIEIPDEIMHHSRDIVEAILKRHKHVKTVLRKVGEVDGVYRVARYEPIYGEKTETVVREHGCRFLVDPTKAYYSVKLSGERERIARLVGEGERVLVMFAGVGPYPIVIAKLARPREVVGVELNPHAVEYFRQNVRLNKVEGVVKVIEGDVEEVVPQLSGQFDRVVMPAPYSAENFIHLLRGKVRRGGFVHYYTFDSQNEEKILPEKVRRKFEDEGLEVEVVKMRRCGNFAPYVNRYVLDLRVL, MGSDKIHHHHHHMSMEAASLDAVSEEQAQSVSILEQAIFATKQTDSSRAEELIRSLTEEALKGTVQWDKNLTVTFNKAITRLDDIISKQLAAIMHNEELQKLEGSWRGLHHTVKNSETNETLKIRVMSLSKKELHKDLSKAVEFDQSQMFKKIYEAEFGTPGGEPYGCLVGDYEFSNHPEDVETLSLISNVAAAGFCPFVSAAGSSLFGFDEWTELSKPRDLEKVFESLEYTQWRSFRDSDDSRFVTLTMPRVLARLPYGEATKPVEEFCYEEFELDLESGRAKVADHDDYCWMNAAYVMATNMGQAFSKYGFCTAIRGAEGGGKVEGLPAHVFTSDDGDPDLKCPTEIGITDRREAELSKLGFLPLCHYKHTDYAVFFGSQSCQKPKIMSNHDATANAAISARLPYLMATSRFAHYLKVMARDKIGSFMEAEDVESWLNRWILSFVNASEGGGQEIRAKYPLADAKVEVKEIPGQPGSYNAVAWLRPWLQMEELTASLRLVAKIPKVG, MGSDKIHHHHHHMSMILTSKFVDRERELNFLREHYHSGKAELIVIYGRRRIGKTYLLRKFLEETNGIYLLAEENETNLEDFSLRLADYFKDPFLKENPIRTWGAFFTYLAGKSTKRLVVVIDGVQYLVRAEKGFLSTLQKYWDLYLSSTKIMLILCGSLVSFMEGILSGKSPIYGRRTGTWKVEEMSFFDVLKFHPIDIETAIKIYGVFGGVPQYWVDYDPGKDFWENIKDLVLSKGAKYYDEPKYLLKEELRDVSRYFSILRAISLGYSRFGQIADAARIETKSLGKYLNVLEEMGYIREEKPIVGRGKTVYKINEHFFNFWFRFVFPRRSEIEMGFDVVEEIKKEFNNYLGPVFEEISRQFLIEMNKRKKLPFRFTKIGRWWYKGEEIDLVALNEDEKKALFIEVKWKNLERKEAYKILKDLKRKAELTGLHDWNKAYGIIAKSIMEKEELREEGFLAWDLRDFELIN, MGSDKIHHHHHHMSMVEEKFKKLGVENAPGQELLQKGVKLDLKGEKILGEKIDFSHGDVDAHKPLPNSLELFIEGFNKGGIQAYTEYKGNKEIREYIAGKLSEYIKMNIPADNLIITPGTQGALFLATGSLITRGTKVSIVEPDYFANRKLVEFFEGEIVPIELDYFNVNEKKAGLNLKQLEEAFKSGVELFLFSNPNNPTGVIYSDEEITEIARLVNKYNVTVIADELYSRQIFDNREFYHLITKNINQDKLITIIGPSKTESLSGFRLGIAYGSPTIIKRMEKLQAITTLRTAGYNQAVLKSWFSEPDGFMKDRIEKHQAIRDNLIEKFKTIDGIKIRKTEAGSYIFPTLPELEVNLGDFVKILRIYANVIVTPGTEFGKSFINSIRLNFSQDEKKAAEGVDRILEMIRRYKK, MGSDKIHHHHHHMSNFNFDFAENDFGPLAAKMRPTSLEQYFGQSHLIGEGKPLRKAIQAGHIYSMIFWGPPGTGKTTLAEIIAQRINAEVERISAVTSGIKEIREAIDRAKQNRLADRKTILFVDEVHRFNKSQQDAFLPHIEDGTVIFIGATTENPSFELNNALLSRARVYVLKSLTTAEIEQVLQQAVEDPKRGLGKERLILEENLLQVLAEYVNGDARLALNCLELMVDMADETENGKKIDRTLLKEVLGERQARFDKQGDRFYDLISALHKSVRGSAPDAALYWYARILTAGGDPLYVARRLLAIASEDVGNADPRAMQVALAAWDCFSRVGAYEGERAIAQAIIYLSVAPKSNAVYTAFNTAKQQAKDLPDYDVPPHLRNAPTNLMKELGYGTEYRYAHDEPNAYAAGENYFPPELKDTQYYFPTNRGMEIQIKEKLERLREQDKSAVKKRYK, MGSDKIHHHHHHMSNLQKVIVFGASGFLGEHIIKSLISENWDVYAAVRTKPESSTDGFNQTQVTYYEGDLEDQKYIQDAIAGMDAIIFSAGCTWKSDLEISEYYRRNVQITKNFFTALGDRPNVRIVYTSSMSVIAGSKSDYIFFEDSDRSQVSQNQLSPYDLAKIECEQIALDYAQRGNNLVILNPGNMLGPGVFNHSKITTSILVLWFCQKQFPFYINGGHSYCDVRDVAKAHVAALTRGRSGERYIVAGDNLDMASISSLLVKMTGFKMPQQLPASGVYLLSLLLESLSLLSFRLFKNPYHPDFVKSFALHYYANSQKAIKELAYNITPIETTLIDTIKYFGKRELLSEDLNFFALMTHSNIQSLIYLRQLASQHTFSQFLLSKISQIYGICQSNLSLNNVLDNLVNHSKFNIKTGKFQPDKTKCQEDLKSINQLFEYLYFASNDFLSEVI, MGSDKIHHHHHHMSNLSLDFSHNEFQPLAARMRPATLAQYIGQQHLLGAGKPLPRAIEAGQLHSMILWGPPGTGKTTLAELIGHYGQADVERISAVTSGIKEIREAIERARQNRNAGRRTILFVDEVHRFNKSQQDAFLPHIEDGTITFIGATTENPSFELNSALLSRARVYLLKALMAEDIEQVLLQAMSDSERGYGGLNIVLPAETGRMLAELVNGDARRALNSLEMMADMAEIDAQGMRILTPALLNEIAGERSARFDNKGDRYYDLISALHKSVRGSAPDAALYWYARIITAGGDPLYVARRLLAIASEDVGNADPRAMQVAISAWDCFTRVGPAEGERAIAQAIVYLACAPKSNAVYSAFKAAMQDAREKPDYDVPEHLCNAPTRLMKEMGLGAEYRYAHNEPNAYAAGESYFPPEMADTHYYAPTSRGLEGKIGEKLAWLATQDQNSPTKRYR, MGSDKIHHHHHHMSNQFMFADETSQQTTKLPTEYWKILIVDDEPEVHAVTKLALNDFNFLGRGLKFYSAFSGEEAKRLIDEHPDAAILLLDVVMETDDAGLQVARYIREEADNHFTRIILRTGQPGQAPERTVIVNYDINDYKSKTELTAQKLFTAVMSSLRSYRDIMSIDQSRHGLEKIIAASANLYALQPMNSFVDGLVQQLSWVIGGAKQTLYATSNEDGSSYKVLAAHGEDSGVCVGQTLRSVIPSKALAELEHVIANHGSYYGDDFVLLYCRSHCRSHGSVLFIGGLSRALTADDHHVLQLFSENVQLAQDNVVCLEDSDQFLARLADQLMLHHASHFNGILEQNSEVRLAYAVAQKVAAEDAETTALAWSLFAQARPLLNCASDAAAAVETTCQQRVARSLRALGHGEHEATQNAHRALIERLERWDGLGLPEGKQGSDIAISTQVLLLTEQLLDWWESGISDSDIAVRLKDERGRYYSPKFLDVVIKSLPELRTI, MGSDKIHHHHHHMSNRLSVVMIAKNAADLLPDCLGSVSWADEIIVLDSGSTDNTVELARRLGAQVYTHTDWRGYGIQRQRAQDYATGDWVLMIDTDERVTPELRQAILKVLDAPQRGAIYSIARRNYFLGRFMRHSGWYPDRVLRLYERARYRYNDNLVHESLDSLGAEVIPLTGDLLHLTCRDFAGFQQKQLAYAAAWALERHQKGKKTSMAGIFSHTLGAFLKTLLLRGGVLDGKQGWLLAMVNAQYTFTKYTELWALSHGYSEKESS
